Data on 22 molecules can be found in patent publication US20260167699A1 (Chugai, published 2026).

Numbering of substitutions follows the chain as printed.

Sequences and labels used below:
B1: GpH7-A5/GpH7-B3 variant P329_09D/GpL16-k0 (antibody, human IgG1, kappa)
heavy 1: not shown
heavy 2: not shown
light: DIVMTQSPLSLPVTPGEPASISCQASESLVHSNRNTYLHWYLQKPGQSPQLLIYKVSNRFSGVPDRFSGSGSGTDFTLKISRVEAEDVGVYYCSQNTHVPPTFGQGTKVEIERTVAAPSVFIFPPSDEQLKSGTASVVCLLNNFYPREAKVQWKVDNALQSGNSQESVTEQDSKDSTYSLSSTLTLSKADYEKHKVYACEVTHQGLSSPVTKSFNRGEC
notes: He Ab: anti-glypican 3 IgG1 heterodimer, only the GpH7-B3 chain mutated; position in EU numbering; also called He Ab
B2: GpH7-A5/GpH7-B3 variant S324_06M/GpL16-k0 (antibody, human IgG1, kappa)
heavy 1: not shown
heavy 2: not shown
light: B1 light
notes: as for B1
B3: GpH7-A5/GpH7-B3 variant P331_15Y/GpL16-k0 (antibody, human IgG1, kappa)
heavy 1: not shown
heavy 2: not shown
light: B1 light
notes: He Ab: anti-glypican 3 IgG1 heterodimer, only the GpH7-B3 chain mutated; position in EU numbering; also called P331_I5Y; He Ab
B4: GpH7-A5/GpH7-B3 variant P331_16H/GpL16-k0 (antibody, human IgG1, kappa)
heavy 1: not shown
heavy 2: not shown
light: B1 light
notes: as for B1
B5: GpH7-A5/GpH7-B3 variant S324_01G/GpL16-k0 (antibody, human IgG1, kappa)
heavy 1: not shown
heavy 2: not shown
light: B1 light
notes: as for B1
B6: GpH7-A5/GpH7-B3 variant P331_06M/GpL16-k0 (antibody, human IgG1, kappa)
heavy 1: not shown
heavy 2: not shown
light: B1 light
notes: as for B1
B7: GpH7-A5/GpH7-B3 variant P331_11K/GpL16-k0 (antibody, human IgG1, kappa)
heavy 1: not shown
heavy 2: not shown
light: B1 light
notes: as for B1
B8: GpH7-A5/GpH7-B3 variant P331_09D/GpL16-k0 (antibody, human IgG1, kappa)
heavy 1: not shown
heavy 2: not shown
light: B1 light
notes: as for B1
B9: GpH7-A5/GpH7-B3 variant P331_13S/GpL16-k0 (antibody, human IgG1, kappa)
heavy 1: not shown
heavy 2: not shown
light: B1 light
notes: as for B1
B10: GpH7-A5/GpH7-B3 variant P331_07I/GpL16-k0 (antibody, human IgG1, kappa)
heavy 1: not shown
heavy 2: not shown
light: B1 light
notes: as for B1
B11: GpH7-A5/GpH7-B3 variant P331_20W/GpL16-k0 (antibody, human IgG1, kappa)
heavy 1: not shown
heavy 2: not shown
light: B1 light
notes: as for B1
B12: GpH7-A5/GpH7-B3 variant S324_02A/GpL16-k0 (antibody, human IgG1, kappa)
heavy 1: not shown
heavy 2: not shown
light: B1 light
notes: as for B1
B13: GpH7-A5/GpH7-B3 variant P331_04F/GpL16-k0 (antibody, human IgG1, kappa)
heavy 1: not shown
heavy 2: not shown
light: B1 light
notes: as for B1
B14: GpH7-A5/GpH7-B3 variant P331_18N/GpL16-k0 (antibody, human IgG1, kappa)
heavy 1: not shown
heavy 2: not shown
light: B1 light
notes: as for B1
B15: GpH7-A5/GpH7-B3 variant P331_08L/GpL16-k0 (antibody, human IgG1, kappa)
heavy 1: not shown
heavy 2: not shown
light: B1 light
notes: as for B1
B16: GpH7-A5/GpH7-B3 variant P331_10E/GpL16-k0 (antibody, human IgG1, kappa)
heavy 1: not shown
heavy 2: not shown
light: B1 light
notes: as for B1
B17: GpH7-A5/GpH7-B3 variant P331_03V/GpL16-k0 (antibody, human IgG1, kappa)
heavy 1: not shown
heavy 2: not shown
light: B1 light
notes: as for B1
B18: GpH7-A5/GpH7-B3 variant P331_19Q/GpL16-k0 (antibody, human IgG1, kappa)
heavy 1: not shown
heavy 2: not shown
light: B1 light
notes: as for B1
B19: GpH7-A5/GpH7-B3 variant P329_10E/GpL16-k0 (antibody, human IgG1, kappa)
heavy 1: not shown
heavy 2: not shown
light: B1 light
notes: as for B1
B20: GpH7-A5/GpH7-B3 variant P331_02A/GpL16-k0 (antibody, human IgG1, kappa)
heavy 1: not shown
heavy 2: not shown
light: B1 light
notes: as for B1
B21: GpH7-A5/GpH7-B3 variant S324_16H/GpL16-k0 (antibody, human IgG1, kappa)
heavy 1: not shown
heavy 2: not shown
light: B1 light
notes: as for B1
B22: GpH7-A5/GpH7-B3 variant P331_14T/GpL16-k0 (antibody, human IgG1, kappa)
heavy 1: not shown
heavy 2: not shown
light: B1 light
notes: as for B1

One assay addresses T1, FcγRIIa(R) extracellular domain, C-terminal His tag (human, UniProt P12318 34-217).
T1 construct: extracellular domain; Allotype R131; also called 2aR
T1 sequence: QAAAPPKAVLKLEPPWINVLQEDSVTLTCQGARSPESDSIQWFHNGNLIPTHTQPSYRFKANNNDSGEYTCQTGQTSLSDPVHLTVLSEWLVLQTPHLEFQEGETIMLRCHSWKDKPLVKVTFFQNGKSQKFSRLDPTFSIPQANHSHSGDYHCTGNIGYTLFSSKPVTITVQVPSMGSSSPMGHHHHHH
Kind of assay: SPR (Biacore); binding relative to GpH7-A5/GpH7-B3/GpL16-k0 x100.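 Further: antibodies captured on a chip surface, soluble FcγR flowed over in HBS-EP+ running buffer at 25 °C.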 For orientation: In SPR one partner is held on a chip, and binding of the other changes the refractive index at the surface.
Regarding B1, the “He/Con 2aR” value was 76%.

On to B2, for which the “He/Con 2aR” value was 118%.

Regarding B3, the “He/Con 2aR” value stood at 112%.

Regarding B4, the “He/Con 2aR” value was 113%.

As to B5, the “He/Con 2aR” value is 94.4%.

For B6, the “He/Con 2aR” value is 105%.

On to B7, for which the “He/Con 2aR” value is 94.6%.

For the molecule B8, the “He/Con 2aR” value was determined as 101%.

For the molecule B9, the “He/Con 2aR” value was determined as 104%.

Consider B10, for which the “He/Con 2aR” value came out at 109%.

B11: the “He/Con 2aR” value came out at 109%.

With B12, the “He/Con 2aR” value is 99.9%.

For the molecule B13, the “He/Con 2aR” value turned out to be 110%.

In the case of B14, the “He/Con 2aR” value amounted to 104%.

As to B15, the “He/Con 2aR” value amounted to 101%.

With B16, the “He/Con 2aR” value turned out to be 112%.

As to B17, the “He/Con 2aR” value was 114%.

B18: the “He/Con 2aR” value is 96.1%.

As for B19, the “He/Con 2aR” value amounted to 72.7%.

Regarding B20, the “He/Con 2aR” value turned out to be 105%.

On to B21, for which the “He/Con 2aR” value was 105%.

With B22, the “He/Con 2aR” value came out at 104%.

A further assay addresses T2, FcγRIIb extracellular domain, C-terminal His tag (human, UniProt P31994 43-217).
T2 construct: extracellular domain; also called 2b
T2 sequence: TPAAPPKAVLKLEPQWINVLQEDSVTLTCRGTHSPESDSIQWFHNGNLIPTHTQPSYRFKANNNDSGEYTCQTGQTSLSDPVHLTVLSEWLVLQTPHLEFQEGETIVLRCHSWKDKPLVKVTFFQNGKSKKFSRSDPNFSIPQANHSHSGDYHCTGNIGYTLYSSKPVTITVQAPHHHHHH
The assay is described as above.
In the case of B1, the “He/Con 2b” value is 60.4%.

Turning to B2, the “He/Con 2b” value was determined as 126%.

With B3, the “He/Con 2b” value is 127%.

On to B4, for which the “He/Con 2b” value came to 128%.

Turning to B5, the “He/Con 2b” value was found to be 106%.

As for B6, the “He/Con 2b” value is 113%.

Take B7: the “He/Con 2b” value worked out at 93.9%.

As for B8, the “He/Con 2b” value came to 104%.

As for B9, the “He/Con 2b” value amounted to 107%.

Take B10: the “He/Con 2b” value was determined as 127%.

In the case of B11, the “He/Con 2b” value is 123%.

With B12, the “He/Con 2b” value turned out to be 102%.

Turning to B13, the “He/Con 2b” value stood at 122%.

With B14, the “He/Con 2b” value came out at 110%.

On to B15, for which the “He/Con 2b” value came to 106%.

As for B16, the “He/Con 2b” value was determined as 128%.

As for B17, the “He/Con 2b” value came to 132%.

Regarding B18, the “He/Con 2b” value is 94%.

As to B19, the “He/Con 2b” value turned out to be 59.5%.

In the case of B20, the “He/Con 2b” value stood at 110%.

For the molecule B21, the “He/Con 2b” value turned out to be 109%.

As for B22, the “He/Con 2b” value turned out to be 111%.

The target of the next assay is T3, FcγRIIIa extracellular domain, C-terminal His tag (human, UniProt P08637 17-208).
T3 construct: extracellular domain; also called 3a
T3 sequence (P08637 other isoform, or with tags, fused parts or gaps): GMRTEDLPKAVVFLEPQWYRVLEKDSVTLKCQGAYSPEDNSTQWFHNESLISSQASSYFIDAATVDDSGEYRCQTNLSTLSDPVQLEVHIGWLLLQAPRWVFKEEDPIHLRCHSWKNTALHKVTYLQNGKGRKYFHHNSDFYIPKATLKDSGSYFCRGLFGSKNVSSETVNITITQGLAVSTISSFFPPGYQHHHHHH
The assay is described as above.
On to B1, for which the “He/Con 3a” value was determined as 52.5%.

Consider B2, for which the “He/Con 3a” value came out at 124%.

As for B3, the “He/Con 3a” value amounted to 74.9%.

With B4, the “He/Con 3a” value came out at 73.4%.

As for B5, the “He/Con 3a” value was 114%.

In the case of B6, the “He/Con 3a” value was 68.4%.

As to B7, the “He/Con 3a” value amounted to 61.8%.

Take B8: the “He/Con 3a” value turned out to be 71.6%.

Regarding B9, the “He/Con 3a” value is 80.9%.

For B10, the “He/Con 3a” value amounted to 60.4%.

As to B11, the “He/Con 3a” value amounted to 71.9%.

With B12, the “He/Con 3a” value was 113%.

Turning to B13, the “He/Con 3a” value was 70.7%.

For the molecule B14, the “He/Con 3a” value turned out to be 67.1%.

As to B15, the “He/Con 3a” value came to 66%.

On to B16, for which the “He/Con 3a” value turned out to be 68.7%.

As for B17, the “He/Con 3a” value turned out to be 66.9%.

With B18, the “He/Con 3a” value turned out to be 73.9%.

With B19, the “He/Con 3a” value is 52.7%.

For the molecule B20, the “He/Con 3a” value came to 82.5%.

For B21, the “He/Con 3a” value turned out to be 113%.

As to B22, the “He/Con 3a” value amounted to 67.8%.

Another assay addresses T4, FcγRIIa(H) extracellular domain, C-terminal His tag (human, UniProt P12318 34-217).
T4 construct: extracellular domain; Allotype H131; also called 2aH
T4 sequence: T1 sequence with R134H
The description is as above.
For the molecule B1, the “He/Con 2aH” value was determined as 57.1%.

As to B2, the “He/Con 2aH” value was determined as 122%.

As to B3, the “He/Con 2aH” value came out at 89%.

For B4, the “He/Con 2aH” value worked out at 87.5%.

Consider B5, for which the “He/Con 2aH” value amounted to 110%.

In the case of B6, the “He/Con 2aH” value came to 88.1%.

As to B7, the “He/Con 2aH” value came out at 83.7%.

Take B8: the “He/Con 2aH” value is 93.6%.

Turning to B9, the “He/Con 2aH” value is 94%.

With B10, the “He/Con 2aH” value stood at 80.1%.

Take B11: the “He/Con 2aH” value was determined as 85.8%.

For B12, the “He/Con 2aH” value came out at 114%.

B13: the “He/Con 2aH” value is 87.7%.

With B14, the “He/Con 2aH” value is 87.2%.

B15: the “He/Con 2aH” value was 85.9%.

For the molecule B16, the “He/Con 2aH” value worked out at 90.1%.

B17: the “He/Con 2aH” value was found to be 85.4%.

As to B18, the “He/Con 2aH” value worked out at 91.6%.

B19: the “He/Con 2aH” value is 57.6%.

On to B20, for which the “He/Con 2aH” value worked out at 93.9%.

As to B21, the “He/Con 2aH” value stood at 113%.

Turning to B22, the “He/Con 2aH” value worked out at 86.5%.

A further assay deals with T5, FcγRIa extracellular domain, C-terminal His tag (human, UniProt P12314 16-292).
T5 construct: extracellular domain; also called 1a
T5 sequence (P12314 other isoform, or with tags, fused parts or gaps): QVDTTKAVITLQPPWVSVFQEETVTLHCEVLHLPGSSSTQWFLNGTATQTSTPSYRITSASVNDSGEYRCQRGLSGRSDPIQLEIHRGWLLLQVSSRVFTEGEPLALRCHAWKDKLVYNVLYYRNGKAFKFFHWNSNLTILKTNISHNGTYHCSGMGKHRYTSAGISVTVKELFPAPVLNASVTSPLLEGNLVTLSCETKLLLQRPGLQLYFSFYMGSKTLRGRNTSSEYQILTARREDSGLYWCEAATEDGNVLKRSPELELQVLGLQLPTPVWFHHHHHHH
The description is as above.
For B1, the “He/Con 1a” value was found to be 80.1%.

Turning to B2, the “He/Con 1a” value is 104%.

In the case of B3, the “He/Con 1a” value is 109%.

Regarding B4, the “He/Con 1a” value is 105%.

Regarding B5, the “He/Con 1a” value was 93.2%.

For B6, the “He/Con 1a” value came to 106%.

On to B7, for which the “He/Con 1a” value was determined as 100%.

For B8, the “He/Con 1a” value is 109%.

With B9, the “He/Con 1a” value was 108%.

For B10, the “He/Con 1a” value is 106%.

For the molecule B11, the “He/Con 1a” value came to 107%.

With B12, the “He/Con 1a” value amounted to 96.9%.

Consider B13, for which the “He/Con 1a” value stood at 108%.

Consider B14, for which the “He/Con 1a” value stood at 106%.

In the case of B15, the “He/Con 1a” value turned out to be 105%.

As to B16, the “He/Con 1a” value stood at 108%.

For the molecule B17, the “He/Con 1a” value stood at 104%.

B18: the “He/Con 1a” value was 108%.

Consider B19, for which the “He/Con 1a” value worked out at 81.4%.

Consider B20, for which the “He/Con 1a” value was 105%.

With B21, the “He/Con 1a” value is 106%.

As to B22, the “He/Con 1a” value turned out to be 102%.
